Consider two molecules from EP4772536A1 (Teijin Pharma Limited, dated 2026).

The target in test [1] is T1, recombinant human soluble gpNMB (human gpNMB-FLAG-His) (human, UniProt Q14956 23-498).
T1 construct: FLAG and His tags; also called recombinant human gpNMB-FLAG-His
T1 sequence: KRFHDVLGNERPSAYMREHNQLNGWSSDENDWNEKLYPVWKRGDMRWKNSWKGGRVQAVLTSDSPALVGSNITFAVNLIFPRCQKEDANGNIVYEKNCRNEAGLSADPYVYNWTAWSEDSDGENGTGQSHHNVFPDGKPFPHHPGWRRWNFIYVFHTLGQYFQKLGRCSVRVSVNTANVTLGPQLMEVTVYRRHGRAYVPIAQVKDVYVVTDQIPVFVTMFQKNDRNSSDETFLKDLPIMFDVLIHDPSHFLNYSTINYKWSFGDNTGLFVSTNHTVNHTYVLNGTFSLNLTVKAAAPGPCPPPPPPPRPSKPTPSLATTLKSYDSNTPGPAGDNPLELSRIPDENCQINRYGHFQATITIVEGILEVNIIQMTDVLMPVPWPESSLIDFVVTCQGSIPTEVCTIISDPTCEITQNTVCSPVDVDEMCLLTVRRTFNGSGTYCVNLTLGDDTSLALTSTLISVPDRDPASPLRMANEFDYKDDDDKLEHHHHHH
As to the kind of experiment: SPR single-cycle kinetics, gpNMB-FLAG-His captured, 1:1 model.

Test [2] has as its target T2, recombinant mouse soluble gpNMB (mouse gpNMB-FLAG-His) (mouse, UniProt Q99P91 23-502).
T2 construct: FLAG and His tags; also called recombinant mouse gpNMB-FLAG-His
T2 sequence: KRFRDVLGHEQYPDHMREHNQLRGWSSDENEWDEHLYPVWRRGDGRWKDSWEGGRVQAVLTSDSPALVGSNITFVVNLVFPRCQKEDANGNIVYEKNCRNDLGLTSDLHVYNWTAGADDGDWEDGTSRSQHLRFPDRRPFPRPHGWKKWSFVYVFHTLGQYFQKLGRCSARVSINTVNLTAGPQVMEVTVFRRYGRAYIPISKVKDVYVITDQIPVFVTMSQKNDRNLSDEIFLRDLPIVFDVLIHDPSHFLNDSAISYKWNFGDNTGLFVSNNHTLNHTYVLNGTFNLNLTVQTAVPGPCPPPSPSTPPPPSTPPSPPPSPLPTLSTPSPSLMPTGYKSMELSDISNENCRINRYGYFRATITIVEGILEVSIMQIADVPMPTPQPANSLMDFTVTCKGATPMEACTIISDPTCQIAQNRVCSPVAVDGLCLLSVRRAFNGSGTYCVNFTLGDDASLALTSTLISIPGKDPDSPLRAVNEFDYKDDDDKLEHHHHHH
Described as above.

B1: GPN05-1 (antibody, V domains shown)
VH: QVQLQQSGAELVRPGTSVKVSCKASGYAFSNHLIEWVKQRPGQGLEWIGVINPGSGGTNYIEKFKGKATLTADKSSSTAYMQLSSLTSDDSAVYFCARGANWDVGFAYWGQGTLVTVSA
VL: EIQMTQSPSSMSASLGDRITITCQATQDIVKNLNWYQQKPGKPPSFLIYYATELAEGVPSRFSGSGSGSDFSLTISNLESEDFADYYCLQFHEFPRTFGGGTKLEIK
notes: anti-gpNMB monoclonal antibody
A word on the Kd: it is the concentration at which binding is half-saturated. By koff is commonly meant the first-order rate constant of dissociation. As a reminder, the kon is a measure of how fast the partners come together. For the molecule B1, in test [1], the Kd came to 0.366 nM, the off-rate constant (koff) is 3.55e-05 s⁻¹ and the kon worked out at 96900 M⁻¹ s⁻¹. For the same molecule, in test [2], the Kd turned out to be 8.5 nM, the dissociation rate constant (koff) was 0.000307 s⁻¹ and the on-rate constant (kon) was 36100 M⁻¹ s⁻¹.

B2: GPN06-1 (antibody, V domains shown)
VH: QVQLQQPGAEIVRPGASVKLSCKASGYTFTDNWMGWVKQRPGQGLEWIGAIDPSDSFTNYNQNFKGKATLTVDTSSSTAYMQLSSLTSEDSAVYFCTRSGYYGSPKLGGDYWGQGTTLTVSS
VL: QIVLTQSPAIMSASLGEEITLTCSASSSISYMHWYQQKSGTSPKLLIYSTSNLASGVPSRFSGSGSGTFYSLTISSVEAEDAADYYCHQWNSYPCTFGGGTKLEIK
notes: as for B1
For B2, in test [1], the dissociation constant (Kd) came out at 0.488 nM, the koff was found to be 0.000253 s⁻¹ and the on-rate (kon) was found to be 519000 M⁻¹ s⁻¹. In test [2], the dissociation constant (Kd) is 5.05 nM, the koff was 0.000879 s⁻¹ and the kon was determined as 174000 M⁻¹ s⁻¹.
